Measured values reported in patent US9119806B2, “Culturing circular ssDNA viruses for the production of vaccines” (priority 2007, dated 2015).

Columns and labels:
[1] = tested on: PCV2-infected PK-15 cells; assay: Number of PCV2-infected PK-15 cells (IPMA) after treatment with cytokines or natural cytokine sources; type: cell-based, Porcine circovirus 2; details: for increase in PCV2-positive cells / lowest concentration inducing a significant effect on PCV2-positive cells: PK-15
Procedure: PK-15 cells were seeded and maintained in culture medium containing 5%-10% fetal bovine serum (FBS), 0.3 mg/ml glutamine, 100 U/ml penicillin, 0.1 mg/ml streptomycin, 0.1 mg/ml kanamycin dissolved in minimal essential medium (MEM) (Gibco BRL®, Grand Island, USA) or dissolved in RPMI-1640 (GIBCO BRL®, Grand Island, USA) containing 1% nonessential amino acids (100×; GIBCO BRL®, Grand Island, USA) and 1 mM sodium pyruvate (GIBCO BRL®, Grand Island, USA). Cells were seeded at a concentration of 150,000 cells per ml of medium. For the detection of total viral antigen positive cells, the cells were seeded in 96-well microtiter plates (Nunc) (15,000-20,000 cells per well). To detect the expression of specific viral antigens, cells were seeded on sterile cover slips in Leighton tubes (150,000 cells per tube) and finally progeny virus production assays were performed in 24-well plates containing […].
In order to use cells, more related to the target cells in vivo, the monocytic cell line 3D4/31 was used to confirm the effect of the different cytokines on the number of PCV2-infected cells. The 3D4/31 cell line is a porcine monomyeloid cell lines that was established following transfection of primary porcine alveolar macrophage cultures with plasmid pSV3neo, carrying genes for neomycin resistance and SV40 large T antigen. (Weingartl et al. (2002) J Virol Methods. 10, 203-216). These cells were maintained in a 1:1 mixture of RPMI-1640 (Invitrogen) and DMEM (Invitrogen) supplemented with 10% fetal bovine serum, 0.3 mg/ml glutamine, 100 U/ml penicillin, 0.1 mg/ml streptomycin, 0.1 mg/ml kanamycin and 1% non-essential amino acids 100× (GIBCO BRL®, Grand Island, USA). These experiments were also performed in 96-well plates containing the same number of cells. Furthermore, to monitor the effect of IFN-gamma on the entry of PCV2 virion-like particles was determined, 3D4/31 cells were seeded at 2×10^5 cells/ml of medium onto microscopic slides mounted with an 8 well cell culture silicone chamber (Vivascience AG, Hanover). In all inoculations, the same PCV2-strain (Stoon-1010) was used at a multiplicity of infection of 0.01. The virus was diluted in MEM and inoculated on the cell cultures by incubating cells and virus for 1 hour at 37° C. After 1 hour, the inoculum was removed, the cultures were washed twice with MEM and new culture medium was added.
The influence of the cytokines on the infection of PCV2 in PK-15 and 3D4/31 cells was determined by adding two-fold-dilution series of the cytokines to the medium of the cells before, during or after the inoculation. IL-1, IL-6, […] and IFN-alpha were used in concentrations ranging from 0.25-250 Units/ml (U/ml), IFN-gamma was used in concentrations ranging from 0.25-1000 U/ml and IL-10 was used in concentrations from 0.13-125 U/ml. Cell cultures were either pre-treated with the cytokines for 24 hours before inoculation, treated during the inoculation or the cytokines were added in the medium after the inoculation. After 36 hours of incubation at 37° C. in an environment supplemented with 5% CO2, the cells were fixed by drying and frozen at −20° C. The plates were stained with an immuno-peroxydase monolayer assay (IPMA) as described by Sanchez et al. (2003, Vet Microbiol 95, 15-25) and the number of PCV2-positive cells was counted by light microscopy. In each plate a control was inoculated with an equal dose of mock-treated PCV2 (treated with MEM without cytokines). The number of infected cells in this well was used as the reference and all results were expressed as a ratio to this reference.
Two-fold dilutions of the BAL-fluids of the PRCV and mock-inoculated pigs were added to the medium of PCV2-inoculated PK-15 cells after inoculation. Concentrations of the added BAL-fluids ranged from 1.25 to 5%. Supernatants of ConA and mock-stimulated PBMC's were also added to the culture medium of PK-15 cells after inoculation in concentrations ranging from […] to 50%. […]

[2] = tested on: PCV2 capsids on 3D4/31 cells; assay: Attachment of PCV2 capsids (virion-like particles) on 3D4/31 cells; type: cell-based, Porcine circovirus 2; details: 4° C., 0-60 minutes
Procedure: The attachment of PCV2 capsids onto untreated 3D4/31 cells and 3D4/31 cells pre-treated with IFN-gamma was studied as described by Misinzo et al. (J Gen Virol. conditionally accepted for publication). Briefly, treated and untreated 3D4/31 cells were chilled on ice and washed before PCV2 capsids were added and allowed to attach for 0, 1, 5, 10, 15, 30 and 60 minutes at 4° C. Unbound PCV2 capsids were washed-off and cells were fixed with 3% (w/v) paraformaldehyde in phosphate-buffered saline with calcium and magnesium (PBS+) at room temperature for 10 minutes. In order to stain the PCV2 capsids, cells were incubated with biotin-conjugated anti-PCV2 swine polyclonal antibodies and streptavidin-FITC (Molecular Probes, Leiden, The Netherlands) for 1 hour at room temperature. The slides were mounted and analysed by acquisition of digital images of stained PCV2 capsids using a Leica TCS SP2 laser scanning spectral confocal system (Leica Microsystems GmbH, Heidelberg, Germany) linked to a Leica DM/IRB inverted microscope (Leica Microsystems GmbH, Wetzlar, Germany). Successive images from the apex to the base of a single cell were taken and merged. The number of PCV2 capsids attached per cell was counted for ten cells at each time point to establish their binding kinetics into 3D4/31 cells.

[3] = tested on: PCV2 capsids in 3D4/31 cells; assay: Entry (internalization) of PCV2 recombinant capsids in 3D4/31 cells; type: cell-based, Porcine circovirus 2; details: 3D4/31 cells treated with IFN-gamma
Procedure: To study the internalization of recombinant capsids on 3D4/31, cells were washed with RPMI-1640 at 37° C. and then incubated with capsids at 37° C. for 15 minutes followed by washing of unbound capsids. Cells were then fixed with a 3% solution of paraformaldehyde (rPBS) for 10 minutes at 30, 60 and 120 minutes since the addition of capsids into the cells, washed with PBS, and permeabilized in a 0.1% Triton X-100 solution in rPBS. Capsids were stained by incubating the calls with a biotin-conjugated anti-PCV2 swine polyclonal antibody followed by streptavidin-FITC (Molecular Probes, Eugene, Oreg.).

[4] = tested on: EMC virus; details: porcine PK-15 cells infected with EMC virus; supplier leaflet, typical; cited from earlier work

B1: IFN-gamma: Porcine interferon gamma purchased from R&D systems (protein, UniProt P17803 24-166, looked up)
Interferon gamma: QAPFFKEITILKDYFNASTSDVPNGGPLFLEILKNWKEESDKKIIQSQIVSFYFKFFEIFKDNQAIQRSMDVIKQDMFQRFLNGSSGKLNDFEKLIKIPVDNLQIQRKAISELIKVMNDLSPRSNLRKRKRSQTMFQGQRASK
[1]; 1000 U/ml added after inoculation
  increase in PCV2-positive cells: 791±105%
[1]; 1000 U/ml added before inoculation
  increase in PCV2-positive cells: 518±134%
[1]; 1000 U/ml added during inoculation
  increase in PCV2-positive cells: 270±57%
[1]; administered after inoculation
  lowest concentration inducing a significant effect on PCV2-positive cells: 2 U/ml
[1]; administered before inoculation
  lowest concentration inducing a significant effect on PCV2-positive cells: 16 U/ml
[1]; administered during inoculation
  lowest concentration inducing a significant effect on PCV2-positive cells: 2 U/ml
[1]; PK-15 cells, cytokine dilution series, before, during or after inoculation, 36 h
  change in the number of PCV2-positive cells (in words): dose-dependent increase
[2]
  number of attached virion-like particles per cell and binding kinetics (in words): No differences were observed
[3]
  number of internalized virions (in words): significant increase
[4]
  ED50 for anti-viral effect: 0.015 to 0.045 ng/mL
